Among the data in paper doi:10.64898/2025.12.21.695763 are stoichiometry N values, retold here.

The assay deals with Mycobacterium thermoresistibile (Mth) Class Ib ribonucleotide reductase catalytic α-subunit (NrdE), purified alone (M. thermoresistibile). In words: SEC-MALS.

The term stoichiometry N denotes a count of units in the complex or per binding partner.

For “Mycobacterium thermoresistibile (Mth) Class Ib ribonucleotide reductase catalytic α-subunit (NrdE), purified alone (enzyme)”, the stoichiometry N is 2.
